Experimental data taken from US20030008820A1.

Biological target: FGFR on smooth muscle cells (SMC) isolated from bovine aorta (bovine)
Assay: cell-based or functional assay

With “Recombinant human wild-type FGF2 (ligand)” the molar concentration required to achieve half maximal proliferation of SMC ([3H] thymidine incorporation, no chlorate) was 270 pM.

For “dFGF2, tandemly-linked dimeric FGF2, as purified with N-terminal His tag and C-terminal T7 tag (ligand)”, the fold activity in promoting SMC proliferation compared to wild-type FGF2 was 4.5 fold, the molar concentration required to achieve half maximal proliferation of SMC ([3H] thymidine incorporation, no chlorate) was 60 pM and the proliferation of chlorate-treated (HLGAG-depleted) SMC, percent of full proliferation was 80%.
